Experimental data as given in the supplement of paper PMC10065799, “High-throughput profiling of sequence recognition by tyrosine kinases and SH2 domains using bacterial peptide display” (eLife, 2023).

Columns and labels:
[1] = target: FGFR3 (UniProt P22607); assay: phosphorylation enrichment, bacterial display (enrichment ratio); higher = better substrate or ligand; peptides without Tyr show the background
[2] = target: Fyn (UniProt P06241); assay: as above
[3] = target: MERTK (UniProt Q12866); assay: as above
[4] = test system: c-Abl (mouse); assay: as above
[5] = test system: c-Src; assay: as above
[6] = target: EPHB2 (UniProt P29323); assay: as above
[7] = test system: AncSZ; assay: as above
[8] = target: Fes (UniProt P07332); assay: as above
[9] = target: FGFR1 (UniProt P11362); assay: as above
[10] = target: EPHB1 (UniProt P54762); assay: as above
[11] = target: Hck (UniProt P08631); assay: as above
[12] = target: Jak2 (UniProt O60674); assay: as above
[13] = test system: Fer (mouse); assay: as above
[14] = target: Grb2 SH2 (UniProt P62993); assay: SH2 binding enrichment of the phosphorylated peptide, bacterial display (enrichment ratio); higher = better substrate or ligand; peptides without Tyr show the background
[15] = target: SHP2-C SH2; assay: as above
[16] = target: c-Src SH2; assay: as above
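Throughout, for SH2 binding enrichment of the phosphorylated peptide, bacterial display: peptide library displayed on the E. coli surface as eCPX fusions, selected cells deep-sequenced, score is each peptide's frequency after selection divided by its frequency in the input.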
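Throughout, for phosphorylation enrichment, bacterial display: 11-residue human phosphosite peptides and single-mutation variants displayed on the E. coli surface, counted by deep sequencing, each peptide's frequency after selection divided by its frequency in the unselected input library; frequency after pTyr selection over input frequency; kinase dosed for 20-30% of maximal phosphorylation in three min.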

Chain of Grb2 SH2 (P62993 whole entry, looked up): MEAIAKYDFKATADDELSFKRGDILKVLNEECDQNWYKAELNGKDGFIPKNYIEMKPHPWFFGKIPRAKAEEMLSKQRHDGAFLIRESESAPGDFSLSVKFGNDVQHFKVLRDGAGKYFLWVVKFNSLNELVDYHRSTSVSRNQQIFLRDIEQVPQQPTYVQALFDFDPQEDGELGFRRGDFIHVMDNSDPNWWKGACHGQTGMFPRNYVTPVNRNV
Chain of FGFR1 (P11362 whole entry, looked up): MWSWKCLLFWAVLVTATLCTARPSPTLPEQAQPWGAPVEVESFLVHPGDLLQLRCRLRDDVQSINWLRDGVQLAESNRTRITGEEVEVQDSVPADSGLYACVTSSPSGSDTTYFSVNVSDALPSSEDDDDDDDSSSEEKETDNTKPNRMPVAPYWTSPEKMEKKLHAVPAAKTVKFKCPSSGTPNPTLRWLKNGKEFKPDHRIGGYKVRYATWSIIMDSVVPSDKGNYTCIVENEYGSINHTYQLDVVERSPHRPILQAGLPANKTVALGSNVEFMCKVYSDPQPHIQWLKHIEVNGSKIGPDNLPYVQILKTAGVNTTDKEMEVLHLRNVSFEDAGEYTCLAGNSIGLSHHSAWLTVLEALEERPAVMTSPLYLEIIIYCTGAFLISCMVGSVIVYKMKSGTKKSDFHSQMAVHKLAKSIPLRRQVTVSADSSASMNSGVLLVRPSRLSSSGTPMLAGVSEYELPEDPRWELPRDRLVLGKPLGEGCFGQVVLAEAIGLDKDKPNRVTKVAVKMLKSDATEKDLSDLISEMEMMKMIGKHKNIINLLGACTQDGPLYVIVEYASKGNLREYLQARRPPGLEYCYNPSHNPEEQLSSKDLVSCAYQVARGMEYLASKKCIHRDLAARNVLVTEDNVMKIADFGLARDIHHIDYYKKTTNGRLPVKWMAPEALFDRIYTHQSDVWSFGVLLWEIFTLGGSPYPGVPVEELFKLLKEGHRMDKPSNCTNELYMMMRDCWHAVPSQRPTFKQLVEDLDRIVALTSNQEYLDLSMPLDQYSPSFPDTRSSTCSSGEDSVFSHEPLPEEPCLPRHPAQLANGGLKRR
Chain of MERTK (Q12866 whole entry, looked up): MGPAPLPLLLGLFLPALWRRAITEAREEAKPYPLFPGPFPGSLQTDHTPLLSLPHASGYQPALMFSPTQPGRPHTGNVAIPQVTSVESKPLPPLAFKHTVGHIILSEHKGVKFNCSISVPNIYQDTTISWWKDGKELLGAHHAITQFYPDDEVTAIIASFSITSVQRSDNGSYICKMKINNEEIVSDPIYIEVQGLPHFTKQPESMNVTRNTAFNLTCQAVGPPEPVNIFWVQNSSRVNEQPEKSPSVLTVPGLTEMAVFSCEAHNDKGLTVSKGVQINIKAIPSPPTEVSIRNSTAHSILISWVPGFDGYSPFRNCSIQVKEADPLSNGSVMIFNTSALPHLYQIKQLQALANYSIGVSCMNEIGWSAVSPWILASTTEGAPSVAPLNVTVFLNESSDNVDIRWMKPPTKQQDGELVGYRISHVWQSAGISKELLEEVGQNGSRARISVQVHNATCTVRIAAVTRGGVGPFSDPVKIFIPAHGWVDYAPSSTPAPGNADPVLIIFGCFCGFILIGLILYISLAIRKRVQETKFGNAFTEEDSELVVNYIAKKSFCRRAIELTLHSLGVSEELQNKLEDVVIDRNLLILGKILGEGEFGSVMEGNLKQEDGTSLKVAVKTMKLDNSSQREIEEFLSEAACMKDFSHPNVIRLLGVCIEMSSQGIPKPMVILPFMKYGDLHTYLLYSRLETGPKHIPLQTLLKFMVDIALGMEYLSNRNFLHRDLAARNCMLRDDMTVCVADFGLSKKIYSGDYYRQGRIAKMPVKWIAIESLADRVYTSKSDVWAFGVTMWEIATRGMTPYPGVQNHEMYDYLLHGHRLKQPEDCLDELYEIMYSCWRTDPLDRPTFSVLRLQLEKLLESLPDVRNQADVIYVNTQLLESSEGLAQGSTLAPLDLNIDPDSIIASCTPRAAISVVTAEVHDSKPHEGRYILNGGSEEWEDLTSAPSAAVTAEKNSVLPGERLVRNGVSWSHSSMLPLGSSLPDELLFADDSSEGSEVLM
Chain of Fes (P07332 whole entry, looked up): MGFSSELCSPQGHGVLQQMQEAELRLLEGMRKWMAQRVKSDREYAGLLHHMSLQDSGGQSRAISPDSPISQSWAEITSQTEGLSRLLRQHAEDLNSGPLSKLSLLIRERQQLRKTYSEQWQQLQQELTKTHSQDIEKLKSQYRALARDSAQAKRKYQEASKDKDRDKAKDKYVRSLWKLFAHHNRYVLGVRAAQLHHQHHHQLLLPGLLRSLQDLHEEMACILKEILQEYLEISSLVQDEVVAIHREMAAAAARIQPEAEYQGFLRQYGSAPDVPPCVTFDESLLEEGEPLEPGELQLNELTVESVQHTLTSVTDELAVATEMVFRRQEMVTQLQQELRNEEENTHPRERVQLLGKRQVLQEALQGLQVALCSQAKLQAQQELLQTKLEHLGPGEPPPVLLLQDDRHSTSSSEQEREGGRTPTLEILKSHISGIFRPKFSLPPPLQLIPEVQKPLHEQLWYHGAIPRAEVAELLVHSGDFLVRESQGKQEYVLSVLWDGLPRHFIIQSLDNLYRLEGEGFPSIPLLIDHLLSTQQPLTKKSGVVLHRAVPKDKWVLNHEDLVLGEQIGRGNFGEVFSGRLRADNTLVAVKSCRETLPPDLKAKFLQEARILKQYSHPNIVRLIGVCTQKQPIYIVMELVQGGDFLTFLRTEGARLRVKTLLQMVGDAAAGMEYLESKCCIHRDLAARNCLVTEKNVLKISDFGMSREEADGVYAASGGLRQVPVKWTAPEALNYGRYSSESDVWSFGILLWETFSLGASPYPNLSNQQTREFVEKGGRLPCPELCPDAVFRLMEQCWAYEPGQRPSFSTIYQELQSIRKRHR
Chain of Hck (P08631 whole entry, looked up): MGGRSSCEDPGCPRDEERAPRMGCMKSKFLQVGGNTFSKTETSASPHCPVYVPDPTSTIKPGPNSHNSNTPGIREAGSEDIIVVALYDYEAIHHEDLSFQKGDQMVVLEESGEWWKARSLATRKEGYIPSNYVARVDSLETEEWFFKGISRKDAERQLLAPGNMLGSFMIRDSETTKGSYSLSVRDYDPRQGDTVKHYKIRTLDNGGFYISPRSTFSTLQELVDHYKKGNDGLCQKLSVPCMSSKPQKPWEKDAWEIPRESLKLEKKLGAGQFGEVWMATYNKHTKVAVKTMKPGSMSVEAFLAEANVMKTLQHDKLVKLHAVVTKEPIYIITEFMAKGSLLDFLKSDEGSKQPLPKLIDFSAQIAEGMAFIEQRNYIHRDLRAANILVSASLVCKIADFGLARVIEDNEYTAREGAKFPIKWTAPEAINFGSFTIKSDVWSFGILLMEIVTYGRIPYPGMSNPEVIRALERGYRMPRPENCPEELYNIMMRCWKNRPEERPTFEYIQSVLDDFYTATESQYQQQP
Chain of EPHB1 (P54762 whole entry, looked up): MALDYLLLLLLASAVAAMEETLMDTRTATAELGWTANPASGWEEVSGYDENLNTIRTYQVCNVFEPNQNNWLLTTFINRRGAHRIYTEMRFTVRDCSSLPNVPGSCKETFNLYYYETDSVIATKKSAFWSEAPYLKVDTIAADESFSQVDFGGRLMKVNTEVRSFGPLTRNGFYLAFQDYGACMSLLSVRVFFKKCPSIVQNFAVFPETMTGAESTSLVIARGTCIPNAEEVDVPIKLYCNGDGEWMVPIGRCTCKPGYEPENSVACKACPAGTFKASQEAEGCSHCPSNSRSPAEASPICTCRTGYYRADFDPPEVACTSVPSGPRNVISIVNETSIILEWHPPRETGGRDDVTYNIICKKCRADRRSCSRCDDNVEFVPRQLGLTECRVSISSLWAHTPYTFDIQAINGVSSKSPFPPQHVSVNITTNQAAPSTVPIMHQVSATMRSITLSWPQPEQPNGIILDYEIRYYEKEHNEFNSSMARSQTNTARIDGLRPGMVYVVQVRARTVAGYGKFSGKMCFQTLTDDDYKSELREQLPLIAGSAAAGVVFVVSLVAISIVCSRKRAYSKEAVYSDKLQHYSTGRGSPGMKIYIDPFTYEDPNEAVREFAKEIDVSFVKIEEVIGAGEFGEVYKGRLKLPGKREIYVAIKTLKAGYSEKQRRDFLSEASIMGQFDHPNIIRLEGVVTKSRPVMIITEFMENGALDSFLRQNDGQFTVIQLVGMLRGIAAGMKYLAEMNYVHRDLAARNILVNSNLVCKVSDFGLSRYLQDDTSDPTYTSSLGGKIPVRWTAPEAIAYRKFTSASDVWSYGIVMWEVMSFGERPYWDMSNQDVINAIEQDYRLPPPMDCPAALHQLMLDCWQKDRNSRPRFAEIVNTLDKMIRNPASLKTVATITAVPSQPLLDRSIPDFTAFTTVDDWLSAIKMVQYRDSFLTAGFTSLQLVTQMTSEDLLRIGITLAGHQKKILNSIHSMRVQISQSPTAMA
Chain of Fyn (P06241 whole entry, looked up): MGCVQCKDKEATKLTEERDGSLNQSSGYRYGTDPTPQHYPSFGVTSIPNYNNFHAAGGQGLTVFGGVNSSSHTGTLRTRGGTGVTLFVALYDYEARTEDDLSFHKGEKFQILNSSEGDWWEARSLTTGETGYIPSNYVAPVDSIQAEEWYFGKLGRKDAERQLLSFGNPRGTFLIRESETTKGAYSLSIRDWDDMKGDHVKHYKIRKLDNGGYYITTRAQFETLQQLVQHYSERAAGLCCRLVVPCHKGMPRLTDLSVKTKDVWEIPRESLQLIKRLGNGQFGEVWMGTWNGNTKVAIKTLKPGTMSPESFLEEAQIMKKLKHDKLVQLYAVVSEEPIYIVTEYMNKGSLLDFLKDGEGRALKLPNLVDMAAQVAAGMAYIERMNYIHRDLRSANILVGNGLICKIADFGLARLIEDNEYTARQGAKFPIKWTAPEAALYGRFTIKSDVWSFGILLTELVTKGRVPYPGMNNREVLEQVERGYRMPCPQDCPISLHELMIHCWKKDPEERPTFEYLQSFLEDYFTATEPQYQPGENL

| Sequence | phosphorylation enrichment [1] | phosphorylation enrichment [2] | phosphorylation enrichment [3] | phosphorylation enrichment [4] | phosphorylation enrichment [5] | phosphorylation enrichment [6] | phosphorylation enrichment [7] | phosphorylation enrichment [8] | phosphorylation enrichment [9] | phosphorylation enrichment [10] | phosphorylation enrichment [11] | phosphorylation enrichment [12] | phosphorylation enrichment [13] | SH2 binding enrichment [14] | SH2 binding enrichment [15] | SH2 binding enrichment [16] |
| --- | --- | --- | --- | --- | --- | --- | --- | --- | --- | --- | --- | --- | --- | --- | --- | --- |
| EHIEFYELDKK [PMM2_Y145_R141H] | 0.571 | 0.566 | 0.514 | 0.588 | 1.11 | 0.492 | 1.01 | 1.1 | 0.487 | 0.4 | 0.445 | 0.746 | 0.456 | 0.688 | 0.632 | 0.559 |
| EILLSYLRTGF [TGM1_Y365_YF] | 0.619 | 0.401 | 0.387 | 0.492 | 0.394 | 0.967 | 1.05 | 0.943 | 0.433 | 0.418 | 0.41 | 0.981 | 0.411 | 1.26 | 0.974 | 0.64 |
| EKKKKYMLPLD [DNM2_Y563_E560K] | 0.506 | 0.604 | 0.504 | 0.691 | 0.496 | 0.469 | 0.594 | 0.951 | 0.5 | 0.52 | 0.452 | 0.567 | 0.502 | 0.762 | 0.436 | 0.522 |
| ELAKYYKLHHI [AK7_Y391_N389K] | 0.677 | 0.41 | 0.376 | 0.665 | 0.478 | 0.562 | 0.884 | 0.827 | 0.516 | 0.589 | 0.393 | 0.987 | 0.461 | 0.961 | 0.93 | 0.748 |
| ELPEKYSQNIC [PKP2_Y626_Y631C] | 0.599 | 0.497 | 0.544 | 0.956 | 0.579 | 0.605 | 1.01 | 1.12 | 0.518 | 0.538 | 0.533 | 1.18 | 0.446 | 0.997 | 0.703 | 0.493 |
| ELTAKYLNFFQ [P3H4_Y181_YF] | 0.681 | 0.458 | 0.385 | 0.765 | 0.454 | 0.479 | 0.871 | 1.05 | 0.438 | 0.564 | 0.396 | 0.908 | 0.517 | 3.9 | 1.16 | 0.562 |
| ELTTCYRKKCC [CCBE1_Y70] | 0.507 | 0.444 | 0.413 | 0.559 | 0.379 | 0.48 | 0.817 | 0.785 | 0.485 | 0.441 | 0.396 | 0.652 | 0.393 | 1.02 | 0.873 | 0.741 |
| EMTAEYTCTRK [ACAD9_Y325_A326T] | 0.636 | 0.624 | 0.465 | 0.636 | 0.477 | 0.607 | 1.14 | 0.974 | 0.654 | 0.674 | 0.699 | 0.757 | 0.513 | 0.632 | 0.638 | 0.41 |
| ENAGYYFQVSA | 1.06 | 0.527 | 0.602 | 0.603 | 0.444 | 0.566 | 1.17 | 1.37 | 0.94 | 0.578 | 0.448 | 1.43 | 0.595 | 0.953 | 0.884 | 0.691 |
| ENKGVYVLMSG [IVD_Y277] | 1.79 | 0.561 | 1.13 | 0.739 | 0.788 | 0.626 | 1.2 | 1.26 | 2.5 | 0.727 | 0.518 | 1.23 | 0.599 | 0.987 | 0.892 | 3.06 |
| ENKGVYVPMSG [IVD_Y277_L279P] | 0.531 | 0.367 | 0.451 | 0.503 | 0.449 | 0.383 | 0.599 | 0.559 | 0.48 | 0.411 | 0.519 | 0.517 | 0.405 | 0.734 | 0.445 | 3.41 |
| ETCLAYREKRI [TEKT1_Y118] | 0.558 | 0.536 | 0.508 | 0.503 | 0.423 | 0.519 | 1.07 | 0.956 | 0.61 | 0.466 | 0.49 | 0.693 | 0.371 | 0.948 | 0.742 | 0.611 |
| ETKKQYDSFTF [TMED3_Y85_YF] | 0.643 | 0.517 | 0.424 | 0.681 | 0.564 | 0.397 | 0.7 | 0.9 | 0.411 | 0.422 | 0.457 | 0.76 | 0.407 | 0.79 | 0.609 | 0.513 |
| ETLLFYGCRRS [POR_Y564_YF] | 0.445 | 0.43 | 0.424 | 0.82 | 0.563 | 0.458 | 0.749 | 0.675 | 0.621 | 0.468 | 0.463 | 0.659 | 0.465 | 0.66 | 0.582 | 0.299 |
| ETLLYYGCRRS [POR_Y564] | 0.71 | 1.89 | 1.18 | 0.883 | 3.48 | 0.506 | 0.959 | 0.897 | 0.795 | 0.63 | 5.24 | 1.67 | 0.638 | 0.712 | 0.767 | 0.466 |
| ETSHNYHKFDS [MATR3_Y243] | 0.475 | 0.401 | 0.393 | 0.61 | 0.475 | 0.451 | 0.463 | 0.551 | 0.393 | 0.416 | 0.395 | 0.662 | 0.372 | 0.623 | 0.881 | 1.11 |
| EVASVYESFQP [MAVS_Y92_Q93E_YF] | 0.852 | 11.2 | 3.2 | 1.56 | 8.96 | 1.01 | 1.91 | 1.31 | 0.668 | 1.1 | 8.64 | 1.65 | 14 | 0.783 | 0.475 | 0.561 |

| Sequence | phosphorylation enrichment [1] | phosphorylation enrichment [2] | phosphorylation enrichment [3] | phosphorylation enrichment [4] | phosphorylation enrichment [5] | phosphorylation enrichment [6] | phosphorylation enrichment [7] | phosphorylation enrichment [8] | phosphorylation enrichment [9] | phosphorylation enrichment [10] | phosphorylation enrichment [11] | phosphorylation enrichment [12] | phosphorylation enrichment [13] | SH2 binding enrichment [14] | SH2 binding enrichment [15] | SH2 binding enrichment [16] |
| --- | --- | --- | --- | --- | --- | --- | --- | --- | --- | --- | --- | --- | --- | --- | --- | --- |
| EVEFEYPFRLH [SYP_Y73] | 0.724 | 0.336 | 0.396 | 0.735 | 0.588 | 0.584 | 1 | 1.37 | 0.42 | 0.564 | 0.509 | 1.5 | 0.489 | 0.892 | 0.899 | 0.755 |
| EVKEAYMGNVL [ACAT1_Y90] | 0.505 | 0.474 | 0.444 | 0.506 | 0.402 | 0.593 | 0.804 | 0.848 | 0.596 | 0.341 | 0.42 | 0.626 | 0.528 | 0.881 | 0.699 | 0.542 |
| EVVGRYSVHFA [MLH1_Y183_N187Y_YF] | 0.676 | 0.579 | 0.448 | 0.531 | 0.436 | 0.49 | 0.92 | 0.978 | 0.529 | 0.612 | 0.504 | 0.692 | 0.424 | 0.909 | 0.798 | 0.532 |
| EYGRRYGFSCQ [CCDC93_Y209_R213C] | 0.696 | 0.53 | 0.476 | 0.881 | 0.483 | 0.594 | 0.931 | 1.12 | 0.526 | 0.59 | 0.617 | 1.2 | 0.526 | 0.725 | 0.492 | 0.418 |
| EYQKKYSDADI [CKAP5_Y1860_K1857Q] | 0.589 | 0.37 | 0.432 | 0.706 | 0.45 | 0.481 | 0.913 | 0.998 | 0.46 | 0.491 | 0.383 | 0.841 | 0.597 | 1 | 0.808 | 0.473 |
| FADIAYNFRHA [PAH_Y166_G171A_YF] | 0.462 | 0.497 | 0.388 | 0.506 | 0.473 | 0.342 | 0.661 | 0.591 | 0.386 | 0.293 | 0.432 | 0.524 | 0.348 | 0.987 | 0.903 | 0.547 |
| FADIAYNYRDG [PAH_Y166_H170D] | 0.622 | 0.371 | 0.363 | 0.545 | 0.418 | 0.501 | 0.942 | 0.836 | 0.397 | 0.404 | 0.352 | 1.04 | 0.376 | 1.12 | 0.575 | 0.639 |
| FADIAYNYRHG [PAH_Y166] | 0.561 | 0.423 | 0.404 | 0.577 | 0.398 | 0.503 | 0.711 | 0.887 | 0.403 | 0.45 | 0.462 | 0.754 | 0.456 | 0.877 | 0.717 | 0.52 |
| FAELVYTGFWH [ASS1_Y322] | 1.85 | 8.14 | 6.23 | 8.78 | 7.01 | 2.59 | 1.54 | 1.41 | 2.22 | 2.21 | 6 | 1.67 | 6.97 | 0.87 | 0.698 | 0.524 |
| FARNSYVAGQY [G6PD_Y107] | 0.415 | 0.389 | 0.405 | 0.449 | 0.535 | 0.4 | 0.516 | 0.544 | 0.403 | 0.322 | 0.385 | 0.502 | 0.347 | 0.826 | 0.651 | 0.495 |
| FCRHNYGVGES [HLA-DRB1_Y112_V115G_YF] | 0.573 | 0.498 | 0.372 | 0.606 | 0.373 | 0.527 | 0.657 | 0.687 | 0.387 | 0.421 | 0.339 | 0.62 | 0.396 | 1.02 | 0.827 | 0.738 |
| FDGKEYDPVEA [MAPRE2_Y167_YF] | 0.801 | 0.62 | 0.493 | 0.924 | 0.573 | 0.545 | 1.5 | 1.43 | 0.545 | 0.636 | 0.617 | 1.2 | 0.631 | 0.985 | 0.408 | 0.795 |
| FDSPFYQDSLP [TSC1_Y508_R509Q] | 0.599 | 0.482 | 0.431 | 0.737 | 0.473 | 0.489 | 0.848 | 1.09 | 0.357 | 0.503 | 0.521 | 0.805 | 2.88 | 0.917 | 0.688 | 0.586 |
| FEEDSYVKRSQ [RET_Y905_YF] | 0.552 | 0.523 | 0.417 | 0.645 | 0.47 | 0.492 | 0.904 | 1.11 | 0.41 | 0.52 | 0.487 | 0.881 | 0.41 | 0.799 | 0.858 | 0.603 |
| FETVKYFNNER [ABCB7_Y345_YF] | 0.606 | 0.39 | 0.288 | 0.567 | 0.345 | 0.445 | 0.828 | 0.898 | 0.417 | 0.564 | 0.381 | 0.702 | 0.465 | 0.862 | 1.04 | 0.509 |
| FFCKFYNKSED [RYR1_Y4864_R4861C] | 0.939 | 0.426 | 0.395 | 1.09 | 0.489 | 0.601 | 1.3 | 1.74 | 0.536 | 0.712 | 0.552 | 1.62 | 0.598 | 0.433 | 0.586 | 0.42 |
